In the Human Domainome abundance scans (Beltran et al. 2025):
± gives the uncertainty stated by the source.

Test: abundance fitness (aPCA) (normalised: wild type 0, dead -1); higher = more abundant; growth selection in yeast, the domain comes from the species named
Settings: Homo sapiens

First: NEDD4-like E3 ubiquitin-protein ligase WWP2 V459P, O00308
Second: NEDD4-like E3 ubiquitin-protein ligase WWP2 V459Q, O00308
The abundance fitness of the first is lower: -0.878 ± 0.037 for the first, -0.019 ± 0.069 for the second.

“NEDD4-like E3 ubiquitin-protein ligase WWP2 V459R, O00308” and “NEDD4-like E3 ubiquitin-protein ligase WWP2 V459S, O00308” are within error of each other in abundance fitness: -0.127 ± 0.051 for the first, -0.097 ± 0.045 for the second.

Going from “NEDD4-like E3 ubiquitin-protein ligase WWP2 V459T, O00308” to “NEDD4-like E3 ubiquitin-protein ligase WWP2 V459W, O00308”, the abundance fitness falls from -0.025 ± 0.059 to -0.18 ± 0.07.

First: NEDD4-like E3 ubiquitin-protein ligase WWP2 V459Y, O00308
Second: NEDD4-like E3 ubiquitin-protein ligase WWP2 V463A, O00308
The abundance fitness of the first is lower: -0.335 ± 0.071 for the first, -0.136 ± 0.036 for the second.

Compared with “NEDD4-like E3 ubiquitin-protein ligase WWP2 V463C, O00308”, “NEDD4-like E3 ubiquitin-protein ligase WWP2 V463E, O00308” is higher in abundance fitness: -0.307 ± 0.086 for the first, -0.16 ± 0.056 for the second.

Going from “NEDD4-like E3 ubiquitin-protein ligase WWP2 V463F, O00308” to “NEDD4-like E3 ubiquitin-protein ligase WWP2 V463G, O00308”, the abundance fitness falls from -0.288 ± 0.039 to -0.972 ± 0.039.

Going from “NEDD4-like E3 ubiquitin-protein ligase WWP2 V463H, O00308” to “NEDD4-like E3 ubiquitin-protein ligase WWP2 V463I, O00308”, the abundance fitness rises from -0.422 ± 0.093 to -0.165 ± 0.072.

Compared with “NEDD4-like E3 ubiquitin-protein ligase WWP2 V463K, O00308”, “NEDD4-like E3 ubiquitin-protein ligase WWP2 V463L, O00308” is higher in abundance fitness: -0.466 ± 0.062 for the first, -0.041 ± 0.035 for the second.

Compared with “NEDD4-like E3 ubiquitin-protein ligase WWP2 V463N, O00308”, “NEDD4-like E3 ubiquitin-protein ligase WWP2 V463P, O00308” is lower in abundance fitness: -0.386 ± 0.056 for the first, -1.29 ± 0.47 for the second.

First: NEDD4-like E3 ubiquitin-protein ligase WWP2 V463Q, O00308
Second: NEDD4-like E3 ubiquitin-protein ligase WWP2 V463R, O00308
The abundance fitness of the first is higher: -0.129 ± 0.08 for the first, -0.352 ± 0.038 for the second.

Compared with “NEDD4-like E3 ubiquitin-protein ligase WWP2 V463T, O00308”, “NEDD4-like E3 ubiquitin-protein ligase WWP2 V463W, O00308” is lower in abundance fitness: -0.209 ± 0.069 for the first, -0.414 ± 0.068 for the second.

Going from “NEDD4-like E3 ubiquitin-protein ligase WWP2 V463Y, O00308” to “NEDD4-like E3 ubiquitin-protein ligase WWP2 W450C, O00308”, the abundance fitness falls from -0.26 ± 0.076 to -0.446 ± 0.051.

“NEDD4-like E3 ubiquitin-protein ligase WWP2 W450D, O00308” and “NEDD4-like E3 ubiquitin-protein ligase WWP2 W450E, O00308” are within error of each other in abundance fitness: -0.552 ± 0.041 for the first, -0.492 ± 0.042 for the second.

Going from “NEDD4-like E3 ubiquitin-protein ligase WWP2 W450F, O00308” to “NEDD4-like E3 ubiquitin-protein ligase WWP2 W450H, O00308”, the abundance fitness falls from -0.026 ± 0.075 to -0.464 ± 0.085.

First: NEDD4-like E3 ubiquitin-protein ligase WWP2 W450I, O00308
Second: NEDD4-like E3 ubiquitin-protein ligase WWP2 W450K, O00308
The abundance fitness of the first is higher: -0.197 ± 0.083 for the first, -0.598 ± 0.084 for the second.

“NEDD4-like E3 ubiquitin-protein ligase WWP2 W450L, O00308” and “NEDD4-like E3 ubiquitin-protein ligase WWP2 W450M, O00308” are within error of each other in abundance fitness: -0.421 ± 0.048 for the first, -0.4 ± 0.071 for the second.

Compared with “NEDD4-like E3 ubiquitin-protein ligase WWP2 W450N, O00308”, “NEDD4-like E3 ubiquitin-protein ligase WWP2 W450R, O00308” is lower in abundance fitness: -0.581 ± 0.099 for the first, -0.735 ± 0.047 for the second.

Compared with “NEDD4-like E3 ubiquitin-protein ligase WWP2 W450S, O00308”, “NEDD4-like E3 ubiquitin-protein ligase WWP2 W450T, O00308” is higher in abundance fitness: -0.676 ± 0.057 for the first, -0.475 ± 0.075 for the second.

“NEDD4-like E3 ubiquitin-protein ligase WWP2 W450V, O00308” and “NEDD4-like E3 ubiquitin-protein ligase WWP2 W450Y, O00308” are within error of each other in abundance fitness: -0.175 ± 0.033 for the first, -0.211 ± 0.081 for the second.

“NEDD4-like E3 ubiquitin-protein ligase WWP2 Y454A, O00308” and “NEDD4-like E3 ubiquitin-protein ligase WWP2 Y454C, O00308” are within error of each other in abundance fitness: -0.036 ± 0.056 for the first, -0.037 ± 0.048 for the second.

Going from “NEDD4-like E3 ubiquitin-protein ligase WWP2 Y454D, O00308” to “NEDD4-like E3 ubiquitin-protein ligase WWP2 Y454E, O00308”, the abundance fitness rises from -0.461 ± 0.12 to -0.046 ± 0.052.

Going from “NEDD4-like E3 ubiquitin-protein ligase WWP2 Y454F, O00308” to “NEDD4-like E3 ubiquitin-protein ligase WWP2 Y454G, O00308”, the abundance fitness falls from -0.083 ± 0.059 to -0.428 ± 0.045.

First: NEDD4-like E3 ubiquitin-protein ligase WWP2 Y454H, O00308
Second: NEDD4-like E3 ubiquitin-protein ligase WWP2 Y454I, O00308
The abundance fitness of the first is lower: -0.306 ± 0.066 for the first, -0.065 ± 0.062 for the second.

“NEDD4-like E3 ubiquitin-protein ligase WWP2 Y454K, O00308” and “NEDD4-like E3 ubiquitin-protein ligase WWP2 Y454L, O00308” are within error of each other in abundance fitness: -0.015 ± 0.067 for the first, -0.035 ± 0.031 for the second.

“NEDD4-like E3 ubiquitin-protein ligase WWP2 Y454M, O00308” and “NEDD4-like E3 ubiquitin-protein ligase WWP2 Y454N, O00308” are within error of each other in abundance fitness: -0.185 ± 0.063 for the first, -0.121 ± 0.077 for the second.

Compared with “NEDD4-like E3 ubiquitin-protein ligase WWP2 Y454P, O00308”, “NEDD4-like E3 ubiquitin-protein ligase WWP2 Y454Q, O00308” is higher in abundance fitness: -0.592 ± 0.068 for the first, 0.008 ± 0.071 for the second.

Going from “NEDD4-like E3 ubiquitin-protein ligase WWP2 Y454R, O00308” to “NEDD4-like E3 ubiquitin-protein ligase WWP2 Y454S, O00308”, the abundance fitness falls from -0.029 ± 0.033 to -0.132 ± 0.043.

“NEDD4-like E3 ubiquitin-protein ligase WWP2 Y454T, O00308” and “NEDD4-like E3 ubiquitin-protein ligase WWP2 Y454V, O00308” are within error of each other in abundance fitness: -0.006 ± 0.057 for the first, -0.047 ± 0.048 for the second.

Compared with “NEDD4-like E3 ubiquitin-protein ligase WWP2 Y454W, O00308”, “NEDD4-like E3 ubiquitin-protein ligase WWP2 Y461A, O00308” is lower in abundance fitness: -0.056 ± 0.035 for the first, -0.669 ± 0.072 for the second.

First: NEDD4-like E3 ubiquitin-protein ligase WWP2 Y461C, O00308
Second: NEDD4-like E3 ubiquitin-protein ligase WWP2 Y461D, O00308
The abundance fitness of the first is higher: -0.538 ± 0.061 for the first, -1.1 ± 0.15 for the second.

First: NEDD4-like E3 ubiquitin-protein ligase WWP2 Y461E, O00308
Second: NEDD4-like E3 ubiquitin-protein ligase WWP2 Y461F, O00308
The abundance fitness of the first is lower: -0.577 ± 0.071 for the first, -0.236 ± 0.075 for the second.

Going from “NEDD4-like E3 ubiquitin-protein ligase WWP2 Y461G, O00308” to “NEDD4-like E3 ubiquitin-protein ligase WWP2 Y461H, O00308”, the abundance fitness rises from -0.863 ± 0.045 to -0.526 ± 0.077.
